Test results from patent publication US20170362324A1 (Biogen, published 2017).
Read-outs that look alike come from different tables or passages of the source. Blank lines part the entries; values can stand above or below the binder they belong to.

Legend:
[1] = molecular target: T1, human soluble αvβ5 protein (extracellular domains of human αv and β5 integrin subunits) (human, UniProt P06756 31-992; P18084 24-719); test: ELISA, Fab blocking of 2 nM soluble αvβ5 binding to immobilized human plasma vitronectin
T1 construct: also called biotin-αvβ5; hsαvβ5
Protocol: Fab fragments of the four constructs of Example 6 were generated from the corresponding IgG1(N297Q) versions by digestion with papain. The ability of each Fab to block 2 nM soluble αvβ5 binding to immobilized human plasma vitronectin was determined by ELISA.

[2] = molecular target: T2, human αvβ5 expressed on BaF3 cells (stably transfected with human αv and β5 subunits) (human, UniProt P06756 31-1048; P18084 24-799); test: cell-based or functional assay
[3] = molecular target: cynomolgus monkey αvβ5 expressed on BaF3 cells (cynomolgus monkey, UniProt A0A2K5WCD3 31-1048; A0A2K5UEB4 24-799); test: cell-based or functional assay
[4] = molecular target: T2, human αvβ5 expressed on BaF3 cells …; test: FACS on BaF3-hu αvβ5 cells
Protocol: (§1) FACS Binding Assay: Cells were washed one time in PBS, and then resuspended in FACS buffer (1×PBS, 1% BSA, 1 mM CaCl₂, and 1 mM MgCl₂). 1×10⁶ cells were then incubated on ice for 1 hr in FACS buffer containing the test antibody in a total volume of 50 μl. After incubation, the cells were washed two times with ice cold FACS buffer, resuspended in 50 μl of FACS buffer containing 3 μg/ml goat anti-mouse IgG AlexaFluor488 (Jackson ImmunoResearch), and incubated on ice for 30 min. The cells were then washed twice with ice cold FACS buffer and fixed in 1% PFA overnight. Cell aggregates were removed by filtering through 40 μm filter plates (Millipore) and binding of the labeled secondary antibody was monitored by flow cytometry using a FACS Calibur (BD Biosciences).
(§2) Based on the results described above in Example 4, four humanized ALULA constructs: VH2/VL2, VH4/VL0, VH4/VL2, and VH5/VL2, were selected for further testing. These VH/VL constructs were expressed as fusion proteins with the hybrid, aglycosylated IgG4.P (S228P)/IgG1 (N297Q) domain, and human kappa light chain domain, and purified from the conditioned medium of stably transfected CHO cells. Each humanized ALULA construct was assessed for binding using competition ELISA with murine ALULA and by FACS using human αvβ5-transfected BaF3 cells. Each humanized ALULA construct was also assessed for blocking binding/adhesion to vitronectin by ELISA or cell adhesion assays using BaF3 cells stably transfected with human or cynomolgous monkey αvβ5. The humanized ALULA constructs were compared to a chimeric form of ALULA comprising the murine heavy and light chain variable domains fused to human IgG1 heavy chain and human kappa light chain domains. The four humanized ALULA constructs behaved similarly in the assays, with H4/L2 generally having similar or slightly higher affinity/blocking potency than the other constructs (see, Table 3).

[5] = molecular target: T1, human soluble αvβ5 protein …; test: αvβ5-vitronectin blocking ELISA
Protocol: (§3) Vitronectin Inhibition ELISA: 96-well microtiter plates were coated with 5 μg/ml purified human plasma vitronectin diluted in PBS (50 μl/well) at 4° C. overnight. After the coating solution was removed, the plates were blocked with 300 μl/well of 1% BSA/TBS at 25° C. for 1 hr. The plate was washed with wash buffer (0.05% Tween-20 in TBS containing 1 mM CaCl₂ and 1 mM MgCl₂), and dilutions of humanized antibodies mixed with 1 nM soluble αvβ5 protein in TBS containing 1% BSA, 1 mM CaCl₂ and 1 mM MgCl₂ were added (50 μl/well) and incubated at 25° C. for 1 hr. The plate was washed 4 times with wash buffer in an automated plate washer and incubated sequentially with 50 μl/well of the anti-beta5 monoclonal antibody 15F11 (at 0.5 ug/mL) in for 1 hr at 25° C. in TBS containing 1% BSA, 1 mM CaCl₂ and 1 mM MgCl₂. After washing the plate 4 times with wash buffer, 100 μl/well of a 1:5000 dilution of a peroxidase-conjugated goat anti-mouse antibody in TBS containing 1% BSA, 1 mM CaCl₂ and 1 mM MgCl₂ were added and incubated for 1 hr at 25° C. Bound protein was detected using the TMB substrate and indicated by the absorbency measured at 450 nm.
as §2

[6] = molecular target: T1, human soluble αvβ5 protein …; test: ALULA competition ELISA on soluble human αvβ5
Protocol: (§4) Competition ELISA: A 96-well microtiter plate was coated with 50 μl/well of 5 μg/mL soluble human αvβ5 protein at 4° C. overnight. The plate was washed with wash buffer (0.05% Tween-20 in PBS) four times in an automated plate washer. 300 μl/well of 1% BSA in PBS was added and incubated for 1 hr at 25° C. to block nonspecific binding. The plate was washed as above, and dilutions of humanized antibodies mixed with 1 nM murine ALULA in PBS containing 1% BSA, were added (50 μl/well). The plate was incubated for 1 hr at 25° C., washed, and then incubated for 40 minutes with 100 μl/well of […] goat anti-mouse antibody. Bound antibody was detected using 3,3′,5,5′-tetramethylbenzidine (TMB). Binding was indicated by the absorbency measured at 450 nm.
as §2

[7] = molecular target: T2, human αvβ5 expressed on BaF3 cells …; test: cell-based or functional assay; remark: listed apart in the source
[8] = molecular target: T2, human αvβ5 expressed on BaF3 cells …; test: cell-based or functional assay; remark: listed apart in the source
[9] = molecular target: T2, human αvβ5 expressed on BaF3 cells …; test: FACS on αvβ5-BaF3 cells, unpurified antibody
Protocol: as §1
(§5) Screening of all combinations of heavy chain versions VH0, VH1, VH2, VH3, VH4, or VH5, with light chains VL0, VL1, VL2, or VL3 was carried out using unpurified proteins in conditioned cell media. The binding of each construct to biotin-conjugated human αvβ5 protein was determined using a solid-phase binding assay (ELISA) and by FACS, and the ability of each construct to block ligand binding was determined using a vitronectin cell adhesion assay (Table 1).

[10] = molecular target: T1, human soluble αvβ5 protein …; test: ELISA, biotin-αvβ5 on streptavidin plate, unpurified antibody
Protocol: Solid-Phase αvβ5 Binding Assay (ELISA): A 96-well microtiter plate was precoated with streptavidin (Thermo Scientific Reacti-Bind StreptAvidin Coated High Binding Capacity plate) was used. Biotinylated soluble αvβ5 protein (2 μg/mL) in TBS with 1% BSA was added to the wells, and the plate was incubated for 1 hr at 25° C. The plate was washed with wash buffer (0.05% Tween-20 in PBS), and purified humanized ALULA antibody in TBS containing 1% BSA, 1 mM CaCl2, and 1 mM MgCl2 were added (50 μl/well). The plate was incubated for 1 hr at 25° C., washed, and then incubated for 1 hr with 50 μl/well of […] goat anti-human secondary antibody. Bound antibody was detected using 3,3′,5,5′-tetramethylbenzidine (TMB). Binding was indicated by the absorbency measured at 450 nm.
as §5

[11] = molecular target: T1, human soluble αvβ5 protein …; test: competition ELISA against 1 nM murine ALULA on coated soluble human αvβ5
Protocol: as §4
The binding of each construct to soluble, purified human αvβ5 protein was determined by a competition ELISA with murine ALULA (FIG. 4). […] The remaining constructs behaved similarly, with version H4/L2 showing the lowest IC50 value in this assay.

[12] = molecular target: T1, human soluble αvβ5 protein …; test: ELISA, inhibition of soluble αvβ5 binding to coated human plasma vitronectin
Protocol: as §3
In parallel, the humanized ALULA antibodies were tested in two adhesion assays. One measured the ability of each antibody to inhibit the binding of soluble αvβ5 to purified human plasma vitronectin. In the other assay, the murine BaF3 cell line was stably transfected with human αv and β5 subunits, and the adhesion of these cells to vitronectin was determined using a fluorescence endpoint.

T1 sequence (P06756 31-992 limits assumed, chain 1 of 2): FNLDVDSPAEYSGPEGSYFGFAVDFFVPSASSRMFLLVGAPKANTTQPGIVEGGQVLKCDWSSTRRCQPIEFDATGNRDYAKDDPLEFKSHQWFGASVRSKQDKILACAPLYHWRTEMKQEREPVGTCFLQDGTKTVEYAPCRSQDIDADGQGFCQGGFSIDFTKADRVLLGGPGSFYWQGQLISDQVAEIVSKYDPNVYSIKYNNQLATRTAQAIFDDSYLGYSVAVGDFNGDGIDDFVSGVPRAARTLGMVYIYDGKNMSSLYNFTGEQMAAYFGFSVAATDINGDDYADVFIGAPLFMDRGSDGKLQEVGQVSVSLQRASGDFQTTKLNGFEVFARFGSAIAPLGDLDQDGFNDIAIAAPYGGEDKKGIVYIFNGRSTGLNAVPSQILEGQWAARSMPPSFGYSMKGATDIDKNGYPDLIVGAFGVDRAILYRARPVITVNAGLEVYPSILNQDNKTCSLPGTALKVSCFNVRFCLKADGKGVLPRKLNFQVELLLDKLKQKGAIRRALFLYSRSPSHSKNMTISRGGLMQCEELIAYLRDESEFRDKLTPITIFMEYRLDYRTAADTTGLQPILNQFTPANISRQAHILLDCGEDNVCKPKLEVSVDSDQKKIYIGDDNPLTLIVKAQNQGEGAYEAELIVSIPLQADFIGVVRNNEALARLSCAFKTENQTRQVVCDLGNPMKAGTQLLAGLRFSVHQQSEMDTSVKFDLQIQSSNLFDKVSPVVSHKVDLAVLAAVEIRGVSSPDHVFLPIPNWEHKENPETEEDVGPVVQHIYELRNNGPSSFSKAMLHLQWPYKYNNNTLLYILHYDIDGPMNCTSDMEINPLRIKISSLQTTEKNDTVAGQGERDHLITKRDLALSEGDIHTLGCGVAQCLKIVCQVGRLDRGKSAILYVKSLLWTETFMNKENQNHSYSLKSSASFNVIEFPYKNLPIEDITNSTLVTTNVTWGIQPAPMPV
T1 sequence (P18084 24-719 limits assumed, chain 2 of 2): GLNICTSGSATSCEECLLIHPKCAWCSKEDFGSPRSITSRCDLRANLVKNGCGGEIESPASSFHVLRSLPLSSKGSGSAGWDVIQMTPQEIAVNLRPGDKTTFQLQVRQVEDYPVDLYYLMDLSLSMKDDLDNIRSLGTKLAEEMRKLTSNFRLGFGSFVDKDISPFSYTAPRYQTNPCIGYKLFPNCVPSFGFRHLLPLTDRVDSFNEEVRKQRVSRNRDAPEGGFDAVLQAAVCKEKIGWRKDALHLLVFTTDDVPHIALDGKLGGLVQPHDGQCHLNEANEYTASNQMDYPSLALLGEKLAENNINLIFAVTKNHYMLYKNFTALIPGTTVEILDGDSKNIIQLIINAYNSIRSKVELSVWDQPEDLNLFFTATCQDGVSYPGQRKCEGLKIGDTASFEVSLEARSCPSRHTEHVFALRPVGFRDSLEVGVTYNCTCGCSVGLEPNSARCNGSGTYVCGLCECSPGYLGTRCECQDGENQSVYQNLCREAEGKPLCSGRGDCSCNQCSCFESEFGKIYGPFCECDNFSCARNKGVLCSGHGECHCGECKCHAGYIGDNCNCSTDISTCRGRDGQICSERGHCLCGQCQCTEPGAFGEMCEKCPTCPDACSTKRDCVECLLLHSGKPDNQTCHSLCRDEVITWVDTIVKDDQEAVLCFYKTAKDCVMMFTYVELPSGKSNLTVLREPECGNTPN
T2 sequence (P06756 31-1048 limits assumed, chain 1 of 2): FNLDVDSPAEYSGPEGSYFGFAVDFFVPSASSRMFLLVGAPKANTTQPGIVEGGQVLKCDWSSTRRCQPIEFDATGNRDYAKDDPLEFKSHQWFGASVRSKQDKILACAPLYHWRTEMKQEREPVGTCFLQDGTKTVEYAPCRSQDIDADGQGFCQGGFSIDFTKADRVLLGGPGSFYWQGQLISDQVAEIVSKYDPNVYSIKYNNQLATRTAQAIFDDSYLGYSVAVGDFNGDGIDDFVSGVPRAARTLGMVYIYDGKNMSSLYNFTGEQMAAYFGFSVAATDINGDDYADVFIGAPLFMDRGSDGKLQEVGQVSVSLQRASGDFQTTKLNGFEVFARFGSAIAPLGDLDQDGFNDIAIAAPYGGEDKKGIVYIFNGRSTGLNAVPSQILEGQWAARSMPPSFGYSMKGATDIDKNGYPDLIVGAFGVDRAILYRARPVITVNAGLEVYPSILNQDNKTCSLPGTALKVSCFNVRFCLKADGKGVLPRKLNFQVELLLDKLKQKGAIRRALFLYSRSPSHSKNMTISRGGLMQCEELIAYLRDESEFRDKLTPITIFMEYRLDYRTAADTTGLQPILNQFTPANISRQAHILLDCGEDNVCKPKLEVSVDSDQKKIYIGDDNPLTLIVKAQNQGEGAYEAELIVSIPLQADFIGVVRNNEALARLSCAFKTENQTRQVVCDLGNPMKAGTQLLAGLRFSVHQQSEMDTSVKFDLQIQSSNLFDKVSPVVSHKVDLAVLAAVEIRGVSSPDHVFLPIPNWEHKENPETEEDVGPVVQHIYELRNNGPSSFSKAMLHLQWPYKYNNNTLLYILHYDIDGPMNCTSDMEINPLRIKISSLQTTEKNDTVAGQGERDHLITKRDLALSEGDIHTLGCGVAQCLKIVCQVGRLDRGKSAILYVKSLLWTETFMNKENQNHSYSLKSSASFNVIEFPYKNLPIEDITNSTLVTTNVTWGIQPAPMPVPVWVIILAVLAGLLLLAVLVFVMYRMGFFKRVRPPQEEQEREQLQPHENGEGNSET
T2 sequence (P18084 24-799 limits assumed, chain 2 of 2): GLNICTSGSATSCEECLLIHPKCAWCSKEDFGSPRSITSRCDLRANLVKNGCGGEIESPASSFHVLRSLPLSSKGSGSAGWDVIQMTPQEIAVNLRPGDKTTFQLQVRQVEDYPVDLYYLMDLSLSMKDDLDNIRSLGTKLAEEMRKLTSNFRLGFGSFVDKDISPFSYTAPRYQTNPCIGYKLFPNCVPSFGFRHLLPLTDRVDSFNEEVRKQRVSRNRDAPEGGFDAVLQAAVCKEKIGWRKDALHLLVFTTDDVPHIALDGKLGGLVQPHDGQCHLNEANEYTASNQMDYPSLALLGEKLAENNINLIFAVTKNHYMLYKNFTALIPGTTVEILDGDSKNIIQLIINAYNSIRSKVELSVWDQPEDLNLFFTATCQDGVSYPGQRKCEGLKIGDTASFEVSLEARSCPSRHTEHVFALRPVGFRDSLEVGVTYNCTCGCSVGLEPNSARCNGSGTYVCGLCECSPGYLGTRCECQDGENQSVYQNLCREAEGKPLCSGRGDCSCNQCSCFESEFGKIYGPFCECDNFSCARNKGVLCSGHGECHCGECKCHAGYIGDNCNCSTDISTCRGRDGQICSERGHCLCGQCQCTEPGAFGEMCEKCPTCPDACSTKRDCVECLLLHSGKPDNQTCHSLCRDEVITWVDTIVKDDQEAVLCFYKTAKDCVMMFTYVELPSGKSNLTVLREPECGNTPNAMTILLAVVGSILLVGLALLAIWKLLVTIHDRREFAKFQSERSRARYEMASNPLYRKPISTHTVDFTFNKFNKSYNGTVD

Fold change (IC50 against mouse chimeric ALULA) [1]: 1.4 fold | IC50 [1]: 6.8 nM
B2: VH5/VL2 Fab fragment (Fab, V domains shown)
VH: EVQVQQSGGGLVKPGGSLRLSCKASGYTFTSYWMHWVKQAPGKGLEWVGAIYPGNSDTSYNQKFKGKATLSAVTSPNTAYLQMNSLKTEDTAVYYCTTTTYGYDWFAYWGQGTLVTVSS
VL: NIQMTQSPSSLSASVGDRVTMSCKSSQSVLYSSNQKNYLAWYQQKPGKSPKLLIYWASTRESGVPDRFTGSGSGTDFTLTISSLQPEDFATYYCHQYLSSLTFGQGTKLEIK
notes: also called H5/L2 (Fab source); H5L2 hIgG1 Fab

VN adhesion inhibition, αvβ5-BaF3 (IC50, nM) [7]: 163 nM | VN adhesion inhibition, αvβ5-BaF3 (IC50, nM) [8]: 0.7 nM | EC50 [9]: 147 nM | EC50 [10]: 0.3 nM | IC50 [11]: 3 nM | IC50 [12]: 1.3 nM
B5: VH5/VL1 Agly-hIgG1(T299A) (antibody, V domains shown)
VH: EVQVQQSGGGLVKPGGSLRLSCKASGYTFTSYWMHWVKQAPGKGLEWVGAIYPGNSDTSYNQKFKGKATLSAVTSPNTAYLQMNSLKTEDTAVYYCTTTTYGYDWFAYWGQGTLVTVSS
VL: DIQMTQSPSSLSASVGDRVTMTCKSSQSVLYSSNQKNYLAWYQQKPGKAPKLLIYWASTRESGVPDRFSGSGSGTDFTLTISSLQPEDFATYYCHQYLSSLTFGQGTKLEIK
notes: also called H5/L1

VN adhesion inhibition, αvβ5-BaF3 (IC50, nM) [7]: 83.2 nM | VN adhesion inhibition, αvβ5-BaF3 (IC50, nM) [8]: 0.9 nM | EC50 [9]: 359 nM | EC50 [10]: 0.4 nM | IC50 [11]: 2 nM | IC50 [12]: 1.3 nM
B6: VH5/VL2 Agly-hIgG1(T299A) (antibody, V domains shown)
VH: EVQVQQSGGGLVKPGGSLRLSCKASGYTFTSYWMHWVKQAPGKGLEWVGAIYPGNSDTSYNQKFKGKATLSAVTSPNTAYLQMNSLKTEDTAVYYCTTTTYGYDWFAYWGQGTLVTVSS
VL: NIQMTQSPSSLSASVGDRVTMSCKSSQSVLYSSNQKNYLAWYQQKPGKSPKLLIYWASTRESGVPDRFTGSGSGTDFTLTISSLQPEDFATYYCHQYLSSLTFGQGTKLEIK
notes: also called H5/L2 (Agly-IgG1)

Further lines, the binder ahead of its results:

B1: VH2/VL2 Fab fragment (Fab, V domains shown)
VH: EVQVVQSGGGLVKPGESLRLSCAASGYTFTSYWMHWVKQAPGKGLEWVGAIYPGNSDTSYNQKFKGKFTISADTSSNTAYLQMNSLKTEDTAVYYCTTTTYGYDWFAYWGQGTLVTVSS
VL: NIQMTQSPSSLSASVGDRVTMSCKSSQSVLYSSNQKNYLAWYQQKPGKSPKLLIYWASTRESGVPDRFTGSGSGTDFTLTISSLQPEDFATYYCHQYLSSLTFGQGTKLEIK
notes: also called H2/L2 (Fab source); H2L2 hIgG1 Fab
Fold change (IC50 against mouse chimeric ALULA) [1]: 1.5 fold | IC50 [1]: 7.3 nM

B3: VH2/VL2 Agly-IgG4.P (S228P)/IgG1 (N297Q) (antibody, V domains shown)
VH: EVQVVQSGGGLVKPGESLRLSCAASGYTFTSYWMHWVKQAPGKGLEWVGAIYPGNSDTSYNQKFKGKFTISADTSSNTAYLQMNSLKTEDTAVYYCTTTTYGYDWFAYWGQGTLVTVSS
VL: NIQMTQSPSSLSASVGDRVTMSCKSSQSVLYSSNQKNYLAWYQQKPGKSPKLLIYWASTRESGVPDRFTGSGSGTDFTLTISSLQPEDFATYYCHQYLSSLTFGQGTKLEIKR
notes: also called VH2/VL2 (Agly-IgG4P/G1); H2/L2
BaF3-hu αvβ5 Cell adhesion to vitronectin (IC50, nM) [2]: 0.3 nM | BaF3-hu αvβ5 Cell adhesion to vitronectin, Fold chg. (against mouse chimeric ALULA) [2]: 1.8 fold | BaF3-cyno αvβ5 Cell adhesion to vitronectin (IC50, nM) [3]: 0.61 nM | BaF3-cyno αvβ5 Cell adhesion to vitronectin, Fold chg. (against mouse chimeric ALULA) [3]: 1 fold | EC50 [4]: 5.73 nM | Fold chg. (EC50 against mouse chimeric ALULA) [4]: 1.1 fold | Fold chg. (IC50 against mouse chimeric ALULA) [5]: 1.1 fold | IC50 [5]: 1.74 nM | Fold chg. (IC50 against mouse chimeric ALULA) [6]: 1.4 fold | IC50 [6]: 2.61 nM

B4: VH4/VL0 Fab fragment (Fab, V domains shown)
VH: EVQVVQSGGGLVKPGESLRLSCKASGYTFTSYWMHWVKQAPGKGLEWVGAIYPGNSDTSYNQKFKGKFTISADTSPNTAYLQMNSLKTEDTAVYYCTTTTYGYDWFAYWGQGTLVTVSS
VL: DIQMTQSPSSVSASVGDRVTITCKSSQSVLYSSNQKNYLAWYQQKPGKAPKLLIYWASTRESGVPSRFSGSGSGTDFTLTISSLQPEDFATYYCHQYLSSLTFGQGTKVEIK
notes: also called H4/L0 (Fab source); H4L0 hIgG1 Fab
Fold change (IC50 against mouse chimeric ALULA) [1]: 1.6 fold | IC50 [1]: 7.5 nM

B7: Mouse chimeric ALULA Fab fragment (Fab, V domains shown)
VH: EVQVQQSGTVLARPGASVKMSCKASGYTFTSYWMHWVKQRPGQGLEWIGAIYPGNSDTSYNQKFKGKAKLTAVTSPNTAYMELSSLTNEDSAVYYCTTTTYGYDWFAYWGQGTLVTVSA
VL: NIMMTQSPSSLTVSAGEKVTMSCKSSQSVLYSSNQKNYLAWYQQKPGQSPKLLIYWASTRESGVPDRFTGSGSGTDFTLTISSVQAEDLAVYYCHQYLSSLTFGAGTKLELK
notes: also called Mouse chimeric ALULA (Fab source)
IC50 [1]: 4.8 nM
